This passage reports mean fluorescence intensity results from patent US20220204609A1.

For assay [1], the target named is Claudin18.1 on cells (human) (UniProt P56856). Nature of the assay: flow cytometry on 293T-Claudin18.1 cells, antibody at 3 µg/mL. (A flow cytometer gives signals particle by particle.)
For assay [2] the target is unchanged. Described as above. The source holds these as a separate data set.
Assay [3] shares this target. Nature of the assay: flow cytometry on 293T-Claudin18.1 cells, antibody at 1.5 µg/mL.
For assay [4] the target is unchanged. Described as above. The source holds these as a separate data set.
Assay [5] has the same target. Nature of the assay: flow cytometry on 293T-Claudin18.1 cells, antibody at 0.75 µg/mL.
Assay [6] has the same target. The assay is described as above. The source holds these as a separate data set.
For assay [7] the target is unchanged. Nature of the assay: flow cytometry on 293T-Claudin18.1 cells, antibody at 0.375 µg/mL.
Assay [8] has the same target. The description is as above. The source holds these as a separate data set.

Sequence of Claudin18.1 on cells (human) (P56856 whole entry, form in doubt): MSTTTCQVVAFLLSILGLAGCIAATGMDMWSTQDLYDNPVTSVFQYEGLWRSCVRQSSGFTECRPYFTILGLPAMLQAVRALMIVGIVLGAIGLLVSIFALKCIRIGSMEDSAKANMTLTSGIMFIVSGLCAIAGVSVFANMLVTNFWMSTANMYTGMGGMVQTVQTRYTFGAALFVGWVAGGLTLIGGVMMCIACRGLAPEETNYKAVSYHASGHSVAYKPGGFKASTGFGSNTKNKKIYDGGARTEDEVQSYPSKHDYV

On to IMAB362 (antibody), for which the mean fluorescence intensity was found to be 35600 in assay [1]; 12500 in assay [2]; 24900 in assay [3]; 17300 in assay [4]; 32000 in assay [5]; 20700 in assay [6]. Further, the mean fluorescence intensity in assay [7] worked out at 15600; in assay [8], 12800.
